Data set [1] has as its target DevR (full-length) (Mycobacterium tuberculosis) (UniProt P9WMF9). Put plainly: DNase I footprinting.
The target of data set [2] is DevRC (DevR C-terminal domain) (Mycobacterium tuberculosis H37Rv) (UniProt P9WMF9). Put plainly: DNase I footprinting.
DevRC (DevR C-terminal domain) (Mycobacterium tuberculosis H37Rv), sequence (P9WMF9 141-217): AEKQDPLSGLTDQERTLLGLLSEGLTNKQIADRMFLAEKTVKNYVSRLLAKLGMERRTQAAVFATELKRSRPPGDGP

DevR (full-length) (Mycobacterium tuberculosis), sequence (P9WMF9 whole entry, the tested form may be a part): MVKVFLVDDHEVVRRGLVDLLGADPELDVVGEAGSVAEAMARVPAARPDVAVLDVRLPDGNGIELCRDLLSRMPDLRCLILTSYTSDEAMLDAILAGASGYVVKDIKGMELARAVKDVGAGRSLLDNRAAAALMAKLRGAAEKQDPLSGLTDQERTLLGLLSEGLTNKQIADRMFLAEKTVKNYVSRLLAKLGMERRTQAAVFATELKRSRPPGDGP

Turning to “TGGCTGCCGGGCCTTTCCCATCAACGGCTGCGGTCATCTATTAAGGATCGCGCGTCGACAGCCGCGGTGGCAGAGCACGAAGGCTCGCCAGCGGAGGACCTTTGGCCCTGCCTCAACGGCTCCTCGCAGCGGAGAGTGGTACTGACGGTTGCAGATAATCCGGATCACCGGGGAAGGCGCTGACCATG (double strand) [tgs1-Rv3131 intergenic DNA (3130F/3131R)]”, the binding entry in data set [1] and in data set [2] was “binds” each time.

The record behind these values is publication PMC3029386.
